Measured values from patent US8394770B2 (priority 2007, dated 2013).
Like-named read-outs stand apart in the source and are kept apart here. Positions of bridges follow the written chain, without caps; N, C: chain ends. No end group written: not given here.

Experiments:
mice = assay: In vivo toxicity / lethality test by injection into mice; details: injected, up to 10,000 microgram per 20 gram mouse weight (so in the source)
hKv1.2 [1] = molecular target: T1, hKv1.2 (Homo sapiens, UniProt P16389); assay: Patch-clamp block of hKv1.2 channels expressed in Cos-7 cells
T1 sequence (P16389 whole entry): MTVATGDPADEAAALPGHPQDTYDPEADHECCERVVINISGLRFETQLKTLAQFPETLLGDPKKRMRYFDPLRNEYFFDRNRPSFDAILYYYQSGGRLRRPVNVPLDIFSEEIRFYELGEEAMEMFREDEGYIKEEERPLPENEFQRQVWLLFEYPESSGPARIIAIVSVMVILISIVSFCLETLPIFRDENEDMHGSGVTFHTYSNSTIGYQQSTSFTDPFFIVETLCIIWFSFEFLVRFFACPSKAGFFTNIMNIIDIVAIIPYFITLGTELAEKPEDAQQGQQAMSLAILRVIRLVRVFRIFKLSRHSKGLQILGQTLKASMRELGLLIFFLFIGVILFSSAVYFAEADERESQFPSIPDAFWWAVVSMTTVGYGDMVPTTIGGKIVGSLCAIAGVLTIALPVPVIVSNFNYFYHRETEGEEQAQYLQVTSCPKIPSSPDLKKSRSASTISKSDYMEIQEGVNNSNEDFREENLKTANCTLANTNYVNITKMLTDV

mKv1.1 = mKv1.1 (Mus musculus, UniProt P16388); assay: Patch-clamp block of mKv1.1 channels stably expressed in L929 cells; details: 10 nM
mKv1.1, sequence (P16388 whole entry): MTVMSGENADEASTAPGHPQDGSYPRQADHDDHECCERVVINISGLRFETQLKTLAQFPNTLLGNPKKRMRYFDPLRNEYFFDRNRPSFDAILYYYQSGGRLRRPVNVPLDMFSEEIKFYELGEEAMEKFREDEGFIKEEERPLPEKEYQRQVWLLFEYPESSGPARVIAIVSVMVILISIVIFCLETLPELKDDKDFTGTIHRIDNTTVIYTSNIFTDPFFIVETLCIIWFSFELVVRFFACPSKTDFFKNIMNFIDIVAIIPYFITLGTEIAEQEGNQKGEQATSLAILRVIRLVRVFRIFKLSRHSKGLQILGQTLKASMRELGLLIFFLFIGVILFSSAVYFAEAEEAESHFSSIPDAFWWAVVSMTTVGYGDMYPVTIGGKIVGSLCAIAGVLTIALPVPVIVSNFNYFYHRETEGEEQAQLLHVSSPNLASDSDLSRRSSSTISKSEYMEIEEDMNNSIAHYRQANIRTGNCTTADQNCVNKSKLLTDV

hIKCa1 = hIKCa1 (Homo sapiens, UniProt O15554); assay: Patch-clamp block of recombinant hIKCa1 channels expressed in Cos-7 cells (voltage ramps); details: 10 nM
hIKCa1, sequence (O15554 whole entry): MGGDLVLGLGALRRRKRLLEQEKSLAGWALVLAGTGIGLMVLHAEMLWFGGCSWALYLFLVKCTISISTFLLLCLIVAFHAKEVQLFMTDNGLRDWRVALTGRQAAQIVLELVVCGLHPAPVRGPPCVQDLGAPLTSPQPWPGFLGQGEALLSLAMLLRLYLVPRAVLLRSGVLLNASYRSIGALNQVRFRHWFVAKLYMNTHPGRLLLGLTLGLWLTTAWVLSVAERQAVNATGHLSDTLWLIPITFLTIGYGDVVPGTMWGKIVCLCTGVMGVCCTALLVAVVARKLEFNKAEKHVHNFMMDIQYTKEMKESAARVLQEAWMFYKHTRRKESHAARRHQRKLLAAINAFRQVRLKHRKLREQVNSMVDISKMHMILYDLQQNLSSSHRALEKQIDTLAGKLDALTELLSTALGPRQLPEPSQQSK
Method: The current carried by IKCa1 channels can be measured using a pipette filling solution having 1 μM free Ca^2+ concentration, which is sufficient to fully activate these channels [Grissmer et al., 1993].
Cos-7 cells were maintained in standard cell culturing conditions [Bagdany at al, 2005]. […] The normal extracellular solution is the same as described above. […] This solution contained 1 μM free Ca^2+ concentration to fully activate the hIKCa1 current. All other recording conditions (data acquisition, perfusion etc.) were identical to the description above for Kv1.3 channels.
Two hundred millisecond-long voltage ramps from −120 mV to +50 mV from a holding potential of −120 mV were used to elicit hIKCa1 currents in Cos-7 cells (ramp speed 0.85 mV/ms). Voltage ramps were run every 10 s. […] The reversal potential of the current is −75 mV, which is characteristic to a K^+ conductance based on the ionic composition of the recording solutions. For IKCa1 currents the slope (s) of the linear current-voltage relationship can be used to characterize the current block [Grissmer et al., 1993]. […] Error bars indicate SEM for n=3 independent experiments.

hKv1.3 channels [2] = molecular target: T2, hKv1.3 channels (Homo sapiens, UniProt P22001); assay: Whole-cell patch-clamp block of hKv1.3 channels endogenously expressed in human peripheral blood T cells; assay type: cell-based; parameters: channels expressed endogenously in human peripheral blood T cells; endogenous in cells; host or cells: human peripheral blood T lymphocytes from healthy volunteers, PHA-stimulated
T2 sequence (P22001 whole entry): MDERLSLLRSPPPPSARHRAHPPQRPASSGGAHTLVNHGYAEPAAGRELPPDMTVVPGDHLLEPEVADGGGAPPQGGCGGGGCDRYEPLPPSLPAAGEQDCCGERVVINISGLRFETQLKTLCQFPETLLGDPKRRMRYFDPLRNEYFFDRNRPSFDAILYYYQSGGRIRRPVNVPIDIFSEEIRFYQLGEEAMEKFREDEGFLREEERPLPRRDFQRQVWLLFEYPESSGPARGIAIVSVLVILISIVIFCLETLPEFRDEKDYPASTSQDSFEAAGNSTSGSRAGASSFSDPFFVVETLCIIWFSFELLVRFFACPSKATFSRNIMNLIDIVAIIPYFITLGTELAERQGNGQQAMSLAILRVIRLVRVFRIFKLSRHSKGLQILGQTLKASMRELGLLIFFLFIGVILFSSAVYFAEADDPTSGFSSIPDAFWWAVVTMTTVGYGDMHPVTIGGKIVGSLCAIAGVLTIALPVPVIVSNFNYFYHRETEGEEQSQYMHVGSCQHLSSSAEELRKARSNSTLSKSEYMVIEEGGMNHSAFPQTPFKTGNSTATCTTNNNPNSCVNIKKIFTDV

DP-BB/W rats = details: repeated daily administration, assayed at 110 days of age, vs vehicle; cited from earlier work
[3] = electrophysiological experiments; cited from earlier work
rat brain synaptosomes = details: binding to rat brain synaptosomes; cited from earlier work
hKv1.2 [4] = molecular target: T1, hKv1.2
hKv1.3 channels [5] = molecular target: T2, hKv1.3 channels
[6] = molecular target: mKv1.1 channel (Mus musculus (Mouse)) (UniProt P16388)
mKv1.1 channel (Mus musculus (Mouse)), sequence (P16388 whole entry): as the sequence (P16388 whole entry) above

hKv1.3 channel [7] = molecular target: T3, hKv1.3 channel (human, UniProt P22001)
[8] = molecular target: hIKCa1 channel (EGFP-tagged) (human) (UniProt O15554); assay: ratio of Kd values from patch clamp, reference hKv1.3
hIKCa1 channel (EGFP-tagged) (human), sequence (O15554 whole entry): as the sequence (O15554 whole entry) above

mKv1.1 channel = mKv1.1 channel (Mus musculus (Mouse), UniProt P16388); assay: as above
hKv1.2 channel = hKv1.2 channel (human, UniProt P16389); assay: as above
hKv1.3 channel [9] = molecular target: T3, hKv1.3 channel; assay: patch clamp on human lymphocytes (summary of the result)
hKv1.3 channel [10] = molecular target: T3, hKv1.3 channel; assay: whole-cell patch clamp; recovery of hKv1.3 current on wash-out after 3 pM Vm24
hKv1.3 channels [11] = molecular target: T2, hKv1.3 channels; remark: listed apart in the source

Molecule: Vm23: 35 amino acid peptide from V. mexicanus venom, SEQ ID NO:1, four disulfide bridges, 83% identical to Vm24 (AAAISCVGSKECLPKCKAQGCKSGKCMNKKCKCYC; not fully specified (bridges); also: four disulfide bridges (pairing not given here))
- toxicity in experimental animals (mice): not toxic
- current inhibition hKv1.2 (hKv1.2 [1]; 10 nM): ~9%
- time for equilibrium block of hKv1.2 to develop (hKv1.2 [1]; 10 nM): 3.5 min
- remaining current fraction (RCF) hKv1.2 (hKv1.2 [1]; 10 nM, n=3): 0.91±0.02
- reversibility of hKv1.2 block (hKv1.2 [1]; after 10 nM, wash-out): not readily reversible within 2 min
- block of mKv1.1 (mKv1.1): practically does not block
- current inhibition mKv1.1 (mKv1.1): ~3%
- block of hIKCa1 (hIKCa1): practically does not block
- current inhibition hIKCa1 (hIKCa1): ~1%
- blockage of hKv1.3 current (hKv1.3 channels [2]; 10 nM): approximately 95%
- time for equilibrium block of hKv1.3 to develop (hKv1.3 channels [2]; 10 nM): 3.5 min
- block of hKv1.3 current (words) (hKv1.3 channels [2]; 10 nM, within 3.5 min): almost completely disappeared
- relief of hKv1.3 block on wash-out (hKv1.3 channels [2]; after 10 nM, within 2 minutes): did not result in a significant relief

Molecule: O=c1ccc2c(OCCCCOc3ccccc3)c3ccoc3cc2o1 [PAP-1]
- reduction of the fraction of rats showing symptoms of EAD (DP-BB/W rats): ~50%

Molecule: HsTx1: toxin of the scorpion Heterometrus spinnifer, SEQ ID NO: 6
- potency of amidated form relative to free-carboxyl-terminal form [3]: 5 fold
- activity of amidated form relative to free-carboxyl-terminal form (rat brain synaptosomes): up to 300 fold

Molecule: sVm24: chemically synthesized, correctly folded Vm24; primary sequence identical to the natural peptide (AAAISCVGSPECPPKCRAQGCKNGKCMNRKCKCYYC-NH2; not fully specified (bridges); also: disulfide pairing as native peptide (not given here))
- block of hKv1.3 current (hKv1.3 channels [2]; 100 pM): > 90%
- block of hKv1.3 current (words) (hKv1.3 channels [2]; 100 pM): almost completely disappeared
- potency in blocking hKv1.3 compared with natural toxin (hKv1.3 channels [2]; RCF at 100 pM, t-test p=0.57): as potent as the natural toxin

B1: Vm24 (peptide)
peptide: AAAISCVGSPECPPKCRAQGCKNGKCMNRKCKCYYC-NH2
modifications: disulfide 12-31, 16-33, 21-36, 6-26; N-terminus assumed
SMILES: CC[C@H](C)[C@H](NC(=O)[C@H](C)NC(=O)[C@H](C)NC(=O)[C@H](C)N)C(=O)N[C@@H](CO)C(=O)N[C@H]1CSSC[C@@H]2NC(=O)[C@H](CCCCN)NC(=O)CNC(=O)[C@H](CC(N)=O)NC(=O)[C@H](CCCCN)NC(=O)[C@@H]3CSSC[C@@H](C(N)=O)NC(=O)[C@H](Cc4ccc(O)cc4)NC(=O)[C@H](Cc4ccc(O)cc4)NC(=O)[C@@H]4CSSC[C@H](NC(=O)[C@H](CCCCN)NC(=O)[C@@H]5CCCN5C(=O)[C@@H]5CCCN5C(=O)[C@H](CSSC[C@H](NC(=O)[C@H](CCCCN)NC(=O)[C@H](CCCNC(=N)N)NC(=O)[C@H](CC(N)=O)NC(=O)[C@H](CCSC)NC2=O)C(=O)N[C@@H](CCCCN)C(=O)N4)NC(=O)[C@H](CCC(=O)O)NC(=O)[C@@H]2CCCN2C(=O)[C@H](CO)NC(=O)CNC(=O)[C@H](C(C)C)NC1=O)C(=O)N[C@@H](CCCNC(=N)N)C(=O)N[C@@H](C)C(=O)N[C@@H](CCC(N)=O)C(=O)NCC(=O)N3
- remaining current fraction (RCF) at 10 nM Vm24 (hKv1.2 [4]): 0.54 RCF
- remaining current fraction (RCF) of whole-cell hKv1.3 current at 10 nM Vm24 (hKv1.3 channels [5]): 0.01 RCF
- remaining current fraction (RCF) at 10 nM Vm24 [6]: 0.8 RCF
- Kd (hKv1.3 channel [7]): 2.9 pM
- selectivity for hKv1.3 over hIKCa1 [8]: > 4500 fold
- selectivity for hKv1.3 over mKv1.1 (mKv1.1 channel): ≥ 10000 fold
- selectivity for hKv1.3 over hKv1.2 (hKv1.2 channel): ≥ 1500 fold
- Kd (hKv1.3 channel [9]): < 3 pM
- koff (hKv1.3 channel [10]): ~0.00026 s⁻¹

B2: Vm23 (peptide)
peptide: AAAISCVGSKECLPKCKAQGCKSGKCMNKKCKCYC-OH
modifications: disulfide (positions not given here); also: four disulfide bridges, pairing not given here (assumed as in Vm24)
- blockage of the current at 10 nM Vm23 (hKv1.3 channels [11]): 95%
